Paper PMC9571070, “Three-Fluorophore FRET Enables the Analysis of Ternary Protein Association in Living Plant Cells” (Plants, 2022)

Target: T1, Receptor-Like Protein 44 fused to monomeric Turquoise 2 (RLP44-mTRQ2) (UniProt Q9M2Y3 25-274)
T1 construct: Receptor-Like Protein 44 (RLP44); Plasma membrane protein with its own signal peptide; also called RLP44-TRQ2; source: N. benthamiana epidermal leaf cells, transiently transformed, in living cells; not shown: mTRQ2, C-terminal, kept
T1 sequence (looked up): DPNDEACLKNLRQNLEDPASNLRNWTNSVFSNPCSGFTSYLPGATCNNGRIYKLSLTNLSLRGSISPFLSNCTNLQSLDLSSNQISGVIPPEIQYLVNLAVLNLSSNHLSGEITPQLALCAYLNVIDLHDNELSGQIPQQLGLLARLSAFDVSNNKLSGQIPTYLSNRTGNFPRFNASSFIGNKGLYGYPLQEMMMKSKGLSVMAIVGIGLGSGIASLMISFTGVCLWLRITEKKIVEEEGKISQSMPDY
Assay: FRET or BRET; FRET-FLIM, fluorescence lifetime of the donor RLP44-mTRQ2 (440 nm pulsed laser, TCSPC), two fusion proteins co-expressed, plasma membrane of living N. benthamiana epidermal leaf cells
Details: partners not purified

B1: BRI1 Associated Kinase 1 fused to monomeric red fluorescence protein 1 (BAK1-mRFP) (receptor, UniProt Q94F62 26-615, looked up)
chain: NAEGDALSALKNSLADPNKVLQSWDATLVTPCTWFHVTCNSDNSVTRVDLGNANLSGQLVMQLGQLPNLQYLELYSNNITGTIPEQLGNLTELVSLDLYLNNLSGPIPSTLGRLKKLRFLRLNNNSLSGEIPRSLTAVLTLQVLDLSNNPLTGDIPVNGSFSLFTPISFANTKLTPLPASPPPPISPTPPSPAGSNRITGAIAGGVAAGAALLFAVPAIALAWWRRKKPQDHFFDVPAEEDPEVHLGQLKRFSLRELQVASDNFSNKNILGRGGFGKVYKGRLADGTLVAVKRLKEERTQGGELQFQTEVEMISMAVHRNLLRLRGFCMTPTERLLVYPYMANGSVASCLRERPESQPPLDWPKRQRIALGSARGLAYLHDHCDPKIIHRDVKAANILLDEEFEAVVGDFGLAKLMDYKDTHVTTAVRGTIGHIAPEYLSTGKSSEKTDVFGYGVMLLELITGQRAFDLARLANDDDVMLLDWVKGLLKEKKLEALVDVDLQGNYKDEEVEQLIQVALLCTQSSPMERPKMSEVVRMLEGDGLAERWEEWQKEEMFRQDFNYPTHHPAVSGWIIGDSTSQIENEYPSGPR
notes: BRI1 Associated Kinase 1 (BAK1), co-receptor kinase; also called BAK1-RFP; source: N. benthamiana epidermal leaf cells, transiently transformed, in living cells; not shown: mRFP, C-terminal, kept
- fluorescence lifetime of the donor RLP44-mTRQ2 (donor alone about 3.99 ns): 3.54 ns
